Laboratory results reported in the supplement of paper PMC10567573.
± gives the standard deviation.

Assay: protein stability index of a GFP-peptide fusion (GPS, HEK-293T) (PSI 1-6); higher = more stable
Settings: c terminus: a fixed tail appended
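Further: 24-mer peptide tiles fused after GFP, lentivirally expressed, FACS-sorted into six equal bins by GFP/DsRed ratio, decoded by Illumina sequencing, PSI is the read-weighted mean bin number.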

Row | Sequence | protein stability index (treatment: DMSO) | protein stability index (treatment: MLN4924 1 uM, 8 h)
1 | SPPTRPVPGHRSERAIRTQPKQLI [SPRY1] | 4.04 ± 0.37 | 4.05 ± 0.18
2 | TWMFFFMMCVAERTYKQRFLFAKL [PHTF1] | 2.83 ± 0.22 | 2.92 ± 0.36
3 | MASSPIQPRKGGADWLGLKDEDLD [FBF1] | 5.12 ± 0.37 | 5.07 ± 0.26
4 | CYYQPAPYVSDGNFSNYYVAHPPV [TENT5C] | 2.24 ± 0.3 | 2.43 ± 0.45
5 | VGAAGSARQELLGDRPRWQRLLGE [ANKRD9] | 3.54 ± 0.27 | 3.31 ± 0.15
6 | GWRSLWLGWGPTALRDVPFSALYW [SLC25A39] | 2.22 ± 0.41 | 2.99 ± 0.76
7 | NSEEEEDDDDEEEEVSEVESFILD [ANKRD17] | 5.06 ± 0.33 | 4.94 ± 0.23
8 | WKYALDMQQSNLDPLSPMTASSLL [FEM1C] | 2.68 ± 0.19 | 2.84 ± 0.42
9 | GNEEEESKIFTTLDPASLAWLTEE [DDIT3] | 5.06 ± 0.2 | 5.09 ± 0.14
10 | ILENTSKVPAPKDVLAHQVPNAKK [NOP53] | 4.23 ± 0.27 | 4.43 ± 0.16
11 | EPERQVQHEESTEGEADHSGYAGE [UFD1] | 5.61 ± 0.28 | 5.7 ± 0.24
12 | EDSIFGDPKKLLTQYFVQENYLEY [MAGEA6] | 2.88 ± 0.34 | 2.62 ± 0.11
13 | GENSDCHRDSSQAIPITELTKSQV [ZNF8] | 4.94 ± 0.12 | 5.29 ± 0.23
14 | KQGSMNFRFIPVLFPNAKKEHVPT [TRAF3IP2] | 2.41 ± 0.41 | 2.48 ± 0.49
15 | VLMWTMLFLGQGIQVSLYCQEWYA [SOAT2] | 2.87 ± 0.36 | 3.3 ± 0.6
16 | ILEVLRSSPMVQVDEKGEKVRPSH [LARP4] | 3.61 ± 0.27 | 3.71 ± 0.12
17 | NSAMPFKILYDDGKMVEEVDGRAT [PTPRD] | 4.69 ± 0.32 | 4.62 ± 0.13
18 | YDTFHTVADMMYFCQMLAVVETIN [HACD3] | 3.08 ± 0.35 | 3.17 ± 0.64
19 | GPSEPGGTHPEDHQGHSDQHHHHH [RHOBTB2] | 5.65 ± 0.073 | 5.32 ± 0.24
20 | AVSTEDLKECLKKQLEFCFSRENL [LARP4] | 2.65 ± 0.55 | 3.11 ± 0.68
21 | LALMIQSSGNTVLLLILCMQHSFP [TMEM192] | 2.9 ± 0.073 | 3.1 ± 0.48
22 | YRLGYFDDALEDFKKVLDLNPGFQ [TTC32] | 2.59 ± 0.2 | 2.41 ± 0.41

Row | Sequence | protein stability index (treatment: DMSO) | protein stability index (treatment: MLN4924 1 uM, 8 h)
23 | RSLEELTRLAFELFAEEQAEGPNR [LPCAT4] | 3.32 ± 0.52 | 3.53 ± 0.18
24 | PCSEFMEPSSDPSLLGEPCAGPGF [SPAG8] | 4.15 ± 0.25 | 4.44 ± 0.28
25 | RYEQGRFWPHLKASNWSTTGFGQG [HDAC6] | 2.54 ± 0.28 | 2.6 ± 0.12
26 | EKDRIKSFTTNEKAILEQNFRDLV [TRIM29] | 3.53 ± 0.27 | 3.82 ± 0.43
27 | AAGMRFPLPEAIDPDVGVNSLQSY [PCDHGA10] | 3.9 ± 0.2 | 4.12 ± 0.31
28 | VRGLLASLFAFKSFRENWQRAWVR [C2CD2L] | 2.3 ± 0.59 | 2.61 ± 0.28
29 | TFFCPNDTYNDMATLFFNPQESAI [CLCN6] | 2.23 ± 0.32 | 2.26 ± 0.22
30 | KYEQAFESSQKYKEGKYIIELNHM [YPEL3] | 2.71 ± 0.1 | 2.87 ± 0.2
31 | SHYFKIIEDLRAQIFANTVDNARI [KRT18] | 2.4 ± 0.44 | 2.07 ± 0.24
32 | RPWADTCSSSGKDGNLCLHVPNPP [HESX1] | 3.48 ± 0.14 | 3.81 ± 0.19
33 | QKASLLIQQALTMFPGVLLPLLES [TCF25] | 3.23 ± 0.48 | 3.51 ± 0.29
34 | LINSNVSMVDLTSVTLEDVTPKKS [FAN1] | 3.34 ± 0.25 | 3.55 ± 0.17
35 | YFSQVPVLASFILDDGEIDEIRWK [IQUB] | 2.25 ± 0.72 | 2.22 ± 0.28
36 | ATFEKILESELLRGTQYSSLDSLD [PSD2] | 2.25 ± 0.23 | 2.41 ± 0.14
37 | NAAKTCPTMPALFSDHTFRHYAYL [INTS4] | 2.03 ± 0.42 | 2.13 ± 0.29
38 | CHQMGVVHRDLKPENLLLASKCKG [CAMK2B] | 3.7 ± 0.16 | 3.84 ± 0.39
39 | LPWSSVLRVWDMFFCEGVKIIFRV [TBC1D10A] | 2.96 ± 0.72 | 3.34 ± 0.86
40 | KPENISLRNKLRELCVKLMFLHPV [SMG5] | 2.9 ± 0.52 | 3.06 ± 0.34
41 | CNLWDSHHPEVPQRILRIMCRLEE [HDAC6] | 2.55 ± 0.16 | 2.35 ± 0.28
42 | TLKEAYVQKLVKVCTDTDRWSLIS [TENT5C] | 2.58 ± 0.4 | 2.4 ± 0.41
43 | HFFALKVMSIPDVIRLKQEQHVHN [PRKX] | 2.25 ± 0.28 | 2.17 ± 0.1
44 | FCQMLAVVETINAAIGVTTSPVLP [HACD3] | 2.69 ± 0.4 | 2.54 ± 0.23

Row | Sequence | protein stability index (treatment: DMSO) | protein stability index (treatment: MLN4924 1 uM, 8 h)
45 | VNEMCPNITRIYNIGKSHQGLKLY [CPXM2] | 2.52 ± 0.35 | 2.57 ± 0.5
46 | GERPEEGVAGGLNRNQGLNRLMLA [TCF25] | 3.88 ± 0.44 | 4.02 ± 0.47
47 | SLMYRSPPGAEEPQAPPASRDEAA [RETREG3] | 5.44 ± 0.22 | 5.38 ± 0.26
48 | NVCDDYDVTCNEFFFDRNPGAFGT [KCNG1] | 3.44 ± 0.25 | 3.65 ± 0.12
49 | PVIAAPSMWTRPQIKDFKEKIQQD [ACBD3] | 4.59 ± 0.32 | 4.41 ± 0.4
50 | VEGKCLQSGFEMLKDVKSTLEKCE [TRIM39] | 4.31 ± 0.21 | 4.41 ± 0.19
51 | YNMAPSALDSADLPPPSALKKGSK [NFE2L1] | 5.26 ± 0.16 | 5.13 ± 0.3
52 | LESIPSLSQSPEPGRRGDPDTAPP [RTN2] | 5.49 ± 0.12 | 5.535 ± 0.045
53 | THIMKGEDDALSDKHGCPAYVSPE [TRIB1] | 5.12 ± 0.14 | 4.91 ± 0.22
54 | PGRPRTDGENVFTGQSKIYSYMSP [KMT5A] | 3.4 ± 0.39 | 3.58 ± 0.23
55 | TERSPGPRLQELLGPSPQRDPQAV [ZNF263] | 4.79 ± 0.2 | 4.91 ± 0.35
56 | TAVAQAPPAVASSSLFDLSVLKLH [SERTAD1] | 3.17 ± 0.061 | 3.24 ± 0.2
57 | TIVTDVFQGSMRIFTKKLPHPDLP [USP39] | 2.31 ± 0.099 | 2.38 ± 0.29
58 | LTAQGQQFHCHKAVLASCSQYFRS [KLHL14] | 2.27 ± 0.25 | 2.37 ± 0.33
59 | TTENENTKFEVRLLRDPADASEAH [CHGB] | 5.18 ± 0.21 | 5.24 ± 0.14
60 | IERGASLEEVNDEGYTPLMEAARE [ANKRD17] | 5.34 ± 0.23 | 5.06 ± 0.21
61 | VLPEDRILREELQKQRLREILEQQ [ZNF277] | 4.63 ± 0.4 | 4.21 ± 0.41
62 | PRMLRESGHGDAHLQEYAGNFQGI [FATE1] | 4 ± 0.24 | 4.22 ± 0.13
63 | EEAVTVLEDLESELDDPGQPVSLR [ZNF24] | 5.58 ± 0.24 | 5.47 ± 0.21
64 | VDLVDESGYVSGYKHAGTYDQKVQ [TPPP] | 4.04 ± 0.32 | 4.01 ± 0.17
65 | PNTAVSVHVSESSDDDEEEEENIG [ACBD3] | 5.5 ± 0.3 | 5.63 ± 0.12
